T1: rHuman Erythropoietin R/Fc Chimera, CF (R&D Systems Cat#963-ER) (human, UniProt P19235 25-250)
T1 construct: Bought recombinant Fc chimera; also called EPO R; EPO R/Fc; Fc part of the bought chimera not given
T1 sequence (looked up): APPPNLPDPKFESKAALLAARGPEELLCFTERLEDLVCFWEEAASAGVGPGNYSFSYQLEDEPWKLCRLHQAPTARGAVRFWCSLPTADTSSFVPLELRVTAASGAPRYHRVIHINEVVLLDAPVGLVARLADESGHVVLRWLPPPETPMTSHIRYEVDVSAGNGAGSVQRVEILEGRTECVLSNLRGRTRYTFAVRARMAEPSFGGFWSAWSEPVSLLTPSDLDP


What was measured:
[1] = biological target: T2, Recombinant Human DLL4 (R&D Systems Cat#1506-D4/CF) (human, UniProt Q9NR61 27-529); experiment: surface plasmon resonance, Fab against recombinant human DLL4; standard deviation in parentheses
T2 construct: Bought recombinant protein; also called rHuman DLL4; delta-like protein 4

[2] = biological target: T3, rHuman CD44/Fc Chimera, CF (R&D Systems Cat#3660-CD) (human, UniProt P16070 21-220); experiment: ECL multispot (MSD) assay, antigen spotted on plate, 10 nM Fab;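 also: bound Fab detected with a TAG-labelled detection antibody (1 h, 20 °C), electrochemiluminescence read and compared with each well's blank, signal/blank of 4 or above scored as hit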
T3 construct: Bought recombinant Fc chimera; Fc part of the bought chimera not given

[3] = biological target: T4, Recombinant Human DLL4 (R&D Systems Cat#1506-D4/CF) (human, UniProt Q9NR61 27-524); experiment: as above
T4 construct: Bought recombinant protein; also called delta-like protein 4; rHuman DLL4

[4] = biological target: T5, rHuman EGF R/Fc Chimera, CF (R&D Systems Cat#344-ER) (human, UniProt P00533 25-645); experiment: as above
T5 construct: Bought recombinant Fc chimera; also called epidermal growth factor receptor; Fc part of the bought chimera not given

[5] = biological target: T6, rHuman HGF R/c-MET/Fc Chimera, CF (R&D Systems Cat#358-MT/CF) (human, UniProt P08581 25-932); experiment: as above
T6 construct: Bought recombinant Fc chimera; also called HGF R/Fc; hepatocyte growth factor receptor; Fc part of the bought chimera not given

[6] = biological target: T7, rHuman ErbB2/Fc Chimera, CF (R&D Systems Cat#1129-ER) (human, UniProt P04626 23-652); experiment: as above
T7 construct: Bought recombinant Fc chimera; also called human epidermal growth factor 2 receptor; Fc part of the bought chimera not given

[7] = biological target: T1, rHuman Erythropoietin R/Fc Chimera, CF …; experiment: as above
[8] = biological target: T8, rHuman P-Cadherin/Fc Chimera, CF (R&D Systems Cat#861-PC) (human, UniProt P22223 108-654); experiment: as above
T8 construct: Bought recombinant Fc chimera; Fc part of the bought chimera not given

[9] = biological target: T9, rHuman Notch-1/Fc Chimera, CF (R&D Systems Cat#3647-TK) (human, UniProt P46531 19-526); experiment: as above
T9 construct: Bought recombinant Fc chimera; Fc part of the bought chimera not given

[10] = biological target: T10, rHuman IGF-1 sR, CF (R&D Systems Cat#391-GR) (human, UniProt P08069 31-932); experiment: as above
T10 construct: Bought soluble receptor; also called insulin-like growth factor-1 soluble receptor

T6 sequence (P08581 25-932, change not shown): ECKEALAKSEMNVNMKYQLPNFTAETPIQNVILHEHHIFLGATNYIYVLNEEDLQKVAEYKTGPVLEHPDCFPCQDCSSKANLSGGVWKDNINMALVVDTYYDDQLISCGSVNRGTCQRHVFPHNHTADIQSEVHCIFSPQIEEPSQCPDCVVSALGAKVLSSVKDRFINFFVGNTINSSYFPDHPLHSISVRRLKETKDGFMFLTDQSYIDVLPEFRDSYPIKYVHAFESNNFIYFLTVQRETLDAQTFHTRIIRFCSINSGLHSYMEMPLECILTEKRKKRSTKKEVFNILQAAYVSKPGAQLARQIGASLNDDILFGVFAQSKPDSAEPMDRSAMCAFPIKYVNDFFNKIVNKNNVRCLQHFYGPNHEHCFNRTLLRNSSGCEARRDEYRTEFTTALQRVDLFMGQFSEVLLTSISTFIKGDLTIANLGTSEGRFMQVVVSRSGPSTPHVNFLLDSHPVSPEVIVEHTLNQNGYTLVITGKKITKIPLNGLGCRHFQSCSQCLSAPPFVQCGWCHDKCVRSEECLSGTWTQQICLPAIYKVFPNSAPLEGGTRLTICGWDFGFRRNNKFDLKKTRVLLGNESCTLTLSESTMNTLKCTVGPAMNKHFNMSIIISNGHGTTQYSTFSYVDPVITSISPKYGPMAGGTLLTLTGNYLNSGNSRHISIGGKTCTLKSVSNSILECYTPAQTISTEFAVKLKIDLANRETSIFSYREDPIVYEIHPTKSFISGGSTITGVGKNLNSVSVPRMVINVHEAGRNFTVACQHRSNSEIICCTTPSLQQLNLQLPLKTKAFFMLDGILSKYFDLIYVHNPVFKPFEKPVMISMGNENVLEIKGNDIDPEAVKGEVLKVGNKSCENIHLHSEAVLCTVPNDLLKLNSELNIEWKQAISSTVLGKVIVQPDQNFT

Row | Kd [1] [µM] | koff [1] [s⁻¹] | kon [1] [M⁻¹ s⁻¹] | ECL signal [2] | ECL signal [3] | ECL signal [4] | ECL signal [5] | ECL signal [6] | ECL signal [7] | ECL signal [8] | ECL signal [9] | ECL signal [10] | Binder
1 | 38 | – | – | – | – | – | – | – | – | – | – | – | Fab VH6-1_IGHD3-3*01_IGHJ4*01 & V4-3_IGLJ4*01 (Fab, V domains shown, Germline Fab made in E. coli: VH in Plasmid A (CH1, His6 and Flag tags), lambda VL in Plasmid E (lambda CL)) VH: QVQLQQSGPGLVKPSQTLSLTCAISGDSVSSNSAAWNWIRQSPSRGLEWLGRTYYRSKWYNDYAVSVKSRITINPDTSKNQFSLQLNSVTPEDTAVYYCAREYYDFWSGYYTDYFDYWGQGTLVTVSS VL: QPVLTQPTSLSASPGASARLTCTLRSGINLGSYRIFWYQQKPESPPRYLLSYYSDSSKHQGSGVPSRFSGSKDASSNAGILVISGLQSEDEADYYCMIWHSSASFVFGGGTQLIIL
2 | 0.5 | 0.29 | 500000 | – | – | – | – | – | – | – | – | – | Fab VH1-46_IGHD3-10*01_IGHJ4*01 & L12_IGKJ1*01 (Fab, V domains shown, Germline Fab made in E. coli: VH in Plasmid A (CH1, His6 and Flag tags), kappa VL in Plasmid C (kappa CL)) VH: QVQLVQSGAEVKKPGASVKVSCKASGYTFTSYYMHWVRQAPGQGLEWMGIINPSGGSTSYAQKFQGRVTMTRDTSTSTVYMELSSLRSEDTAVYYCAREYYYGSGSYYNDYFDYWGQGTLVTVSS VL: not shown
3 | – | – | – | 365 | 14500 | 217 | 221 | 474 | 305 | 426 | 381 | 392 | Fab VH1-46_IGHD6-6*01_IGHJ1*01 S102A/S103P/S104F/H111F G55A & L6_IGKJ1*01 (Fab, V domains shown, Fab (CH1 with His6/Flag tags from Plasmid A, kappa CL from Plasmid C); also called APFF G55A) VH: QVQLVQSGAEVKKPGASVKVSCKASGYTFTSYYMHWVRQAPGQGLEWMGIINPSAGSTSYAQKFQGRVTMTRDTSTSTVYMELSSLRSEDTAVYYCAREEYAPFSAEYFQFWGQGTLVTVSS VL: not shown

More lines, now with the values behind:

Row | Binder | Kd [1] [µM] | koff [1] [s⁻¹] | kon [1] [M⁻¹ s⁻¹] | ECL signal [2] | ECL signal [3] | ECL signal [4] | ECL signal [5] | ECL signal [6] | ECL signal [7] | ECL signal [8] | ECL signal [9] | ECL signal [10]
4 | Fab VH1-46_IGHD6-6*01_IGHJ1*01 S102A/S103P/S104F/H111F I51A & L6_IGKJ1*01 (Fab, V domains shown, Fab (CH1 with His6/Flag tags from Plasmid A, kappa CL from Plasmid C); also called APFF I51A) VH: QVQLVQSGAEVKKPGASVKVSCKASGYTFTSYYMHWVRQAPGQGLEWMGIANPSGGSTSYAQKFQGRVTMTRDTSTSTVYMELSSLRSEDTAVYYCAREEYAPFSAEYFQFWGQGTLVTVSS VL: not shown | – | – | – | 391 | 159000 | 373 | 440 | 344 | 380 | 144 | 312 | 383
5 | Fab VH1-46_IGHD6-6*01_IGHJ1*01 S102A/S103P/S104F/H111F I50A & L6_IGKJ1*01 (Fab, V domains shown, Fab (CH1 with His6/Flag tags from Plasmid A, kappa CL from Plasmid C); also called APFF I50A) VH: QVQLVQSGAEVKKPGASVKVSCKASGYTFTSYYMHWVRQAPGQGLEWMGAINPSGGSTSYAQKFQGRVTMTRDTSTSTVYMELSSLRSEDTAVYYCAREEYAPFSAEYFQFWGQGTLVTVSS VL: not shown | – | – | – | 326 | 2670 | 402 | 301 | 369 | 252 | 313 | 297 | 247
